We go through 1 molecule from publication PMC4372590, “Autonomously Folding Protein Fragments Reveal Differences in the Energy Landscapes of Homologous RNases H” (PLoS ONE, 2015).

A word on the Kd: it is the constant that tells how readily two partners part at equilibrium. The low end stands for higher affinity, the high end for lower affinity. A word on the stoichiometry N: it is the number of molecules, sites or subunits per partner or assembly.

This experiment deals with T1, T. thermophilus RNase H I_(core) fragment (T. thermophilus).
T1 chain: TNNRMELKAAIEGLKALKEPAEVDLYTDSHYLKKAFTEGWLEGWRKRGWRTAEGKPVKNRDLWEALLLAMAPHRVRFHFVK
The experiment is described as follows: AUC; equilibrium analytical ultracentrifugation (Beckman XL-I); 25, 50 and 100 uM samples; 24,500, 30,000 and 37,000 rpm; absorbance at 250 nm; global fit to a monomer-dimer equilibrium (dimer to monomers); room temperature, 20 mM sodium acetate pH 5.5, 50 mM potassium chloride. The settings on record: both partners purified.

B1: T. thermophilus RNase H I_(core) fragment (domain or fragment)
chain: T1 chain
modifications: Printed limits 43-122 use E. coli alignment numbering. The offset is +4 at the N-terminal end (R4=R8, W22=W26, D66=D70) and +5 after the one-residue insertion near 80, so 122=K127. The paper says …
Take B1: the Kd was roughly 150 µM and the “stoichiometry N” value was 2.
